From PMC7134607 (Biochemical and Biophysical Research Communications, 2004)

Target: the molecule itself
Assay: enzyme activity versus enzyme concentration

B1: SARS main protease (enzyme)
chain: SGFRKMAFPSGKVEGCMVQVTCGTTTLNGLWLDDTVYCPRHVICTAEDMLNPNYEDLLIRKSNHSFLVQAGNVQLRVIGHSMQNCLLRLKVDTSNPKTPKYKFVRIQPGQTFSVLACYNGSPSGVYQCAMRPNHTIKGSFLNGSCGSVGFNIDYDCVSFCYMHHMELPTGVHAGTDLEGKFYGPFVDRQTAQAAGTDTTITLNVLAWLYAAVINGDRWFLNRFTTTLNDFNLVAMKYNYEPLTQDHVDILGPLSAQTGIAVLDMCAALKELLQNGMNGRTILGSTILEDEFTPFDVVRQCSGVTFQ
- Kd: 15 ± 4 nM
